Experimental data reported in the DeepSol protein solubility set.

Experiment: soluble on expression in E. coli; label from the status in PepcDB or PDB records

Sequence	soluble on expression in E. coli
MMLSTEGREGFVVKVRGLPWSCSADEVMRFFSDCKIQNGTSGIRFIYTREGRPSGEAFVELESEEEVKLALKKDRETMGHRYVEVFKSNSVEMDWVLKHTGPNSPDTANDGFVRLRGLPFGCSKEEIVQFFSGLEIVPNGMTLPVDFQGRSTGEAFVQFASQEIAEKALKKHKERIGHRYIEIFKSSRAEVRTHYDPPRKLMAMQRPGPYDRPGAGRGYNSIGRGAGFERMRRGAYGGGYGGYDDYGGYNDGYGFGSDRFGRDLNYCFSGMSDHRYGDGGSSFQSTTGHCVHMRGLPYRATENDIYNFFSPLNPMRVHIEIGPDGRVTGEADVEFATHEDAVAAMAKDKANMQHRYVELFLNSTAGTSGGAYDHSYVELFLNSTAGASGGAYGSQMMGGMGLSNQSSYGGPASQQLSGGYGGGYGGQSSMSGYDQVLQENSSDYQSNLA	soluble
MMMDLNIRRVVLDVDKGLNRPTLVELAAAIEKVQGVEAVNIIVTEMDMETMGTNITVEGTNINYDELIETIENTGSAIHSVDEIAVGKRLIENVRRNQN	soluble
MMNPLIIKLGGVLLDSEEALERLFSALVNYRESHQRPLVIVHGGGCVVDELMKGLNLPVKKKNGLRVTPADQIDIITGALAGTANKTLLAWAKKHQIAAVGLFLGDGDSVKVTQLDEELGHVGLAQPGSPKLINSLLENGYLPVVSSIGVTDEGQLMNVNADQAATALAATLGADLILLSDVSGILDGKGQRIAEMTAAKAEQLIEQGIITDGMIVKVNAALDAARTLGRPVDIASWRHAEQLPALFNGMPMGTRILA	soluble
MMPYILVFMVCIFLTSISSRKKIIPLLLSCLILSLFAGFRDKNIGSDTDFYPHWYISEIRYIHNLIDLITIETERNLDKGYLFLYWIASWIGNQ	not soluble
MMRRGGQHLSPDPIGLGGGIQPQSYVHNPLEWVDPLGLTESGCKQPNSPENSQKPEVKKPNISTKIHDGAQGKHIEGHNNYVEGKSVIDAKPQELLDNYHAGNVNTSRVINENKIKVDFGDVNGTHKDMNGTNTSTSWGLIHSRKNGAHIVPALPDTILEHHHHHH	not soluble
MMRRGLLLLNLGTPNNADIRAVKLYLREFLTDKRVIDLPTIPRYILVYCLILPFRSPKSAQAYQSIWTEKGSPLLYHSQNLVTKLQSALKDEYKIALGMRYGTPSITTALAELKDCHSLTILPLFPQYSSAATGSAIEKTLSHLANQEIIPSIKIIRDFYQRPEYIQAQAKIMKPYIKDNFHLLFSYHGIPERHIHKSGCDTLCPQTCTPIYDKNQACYRAQCYQTSLLLAKELQLGTHQYTTAFQSRLGKTPWIKPYTDEIFAELISKGIKNIVVSCPSFVADCLETLEEIGIRAKEQWEKLGGEQFILTPCMNDHPEWIKAIQSIVNEQF	not soluble
MMRVAIFTDTFTPQVNGVAKTLERLTQYFQKEQIAYSVFAPQHTAEDNFVANVNKMRSIPLTILYPECRFSFPTPRIKRELLSFKPDIIHIATPFNMGLCGLYYAKKLNIPVVGSYHTDFDAYLRYYKIEFLSNMLWNYLKWFHSHMQKNFVPSFETLHQLKNKGFQTLSIWGRGVDCTLFHPAYNTDLFRKKYNITAKYVLSYVGRIAPEKDIDTLQHLIVKTAHTRNDIHWLIAGDGPLATSLREAVPKTNITFTGYLQGGDLAEAYACSNIMVFPSATETFGNVVLESLACGTPVIGANSGGVKNIITDGKTGVLCPPKNEDAFLSSIYFLLQNEEKLEQMGIESSSFAKSKSWDEVFRGLLNQYEEVLQHNASELLALEHHHHHH	soluble
MMSILRSQCQISLDVTLSVPNVSEGIVRLLDPQTNTEIANYPIYKILFCVRGHDGTPESDCFAFTESHYNAELFRIHVFRCEIQEAVSRILYSFATAFRRSAKQTPLSATAAPQTPDSDIFTFSVSLEIKEDDGKGYFSAVPKDKDRQCFKLRQGIDKKIVIYVQQTTNKELAIERCFGLLLSPGKDVRIVTALIRFGSMGKVQMESRMLFGELESKIPTFSSCNEEPPKDKVLFMTTAVDLVITEVQEPVRFLLETKVRVCSPNERLFWPFSKRSTTENFFLKLKQIKQRERKNNTDTLYEVVCLESLEHHHHHHLEHHHHHHLEHHHHHHLEHHHHHHLEHHHHHHLEHHHHHHLEHHHHHH	not soluble
MMSLLAVGLVFGLAACSGTSDAKGKIVISGKKFTEQVILTHLLAEYVKANTDLDVEVKDSLGGAFMLQQAIENGDVDMYVEYTGTGYLNILKQPYDPAKTPEQIYNETKKLYKEKYNIAWLKPLGFNNTYALAMRRDLAEKLGVKTYSDLAKHSSSLTFGSDAEFFERSDGYDGLVDTYGFQFKKKVTIDPDLQYEAAKNSEIDVITAYTTDARIKKYDLVVLKDDKQYFPPYHAVPIIRQEVLDANPGLEKKLNKLANILTDEKMMELNGQVNLEGKQPREVALDFLKAEGLID	not soluble
MMTLPYPYSSSARFYALRLLPGQEVFSQLHAFAQQQQLHAAWIAGCTGSLTDIALRYAGQEGTTLLNGTFEVISLNGTLEQSGEHLHLCVSDPHGTMLGGHMMPGCTVRTTLELVIGSLEELAFSRQPCALSGYDELHISPVK	not soluble
MNAAEVIVYEHVNFGGKSFDATSDQPGAGDNLNDKISSIKVKSGTWRFYEYINYGGRYWDLGPGEYSSVESAGIPDNSISSFRQI	soluble
MNAPRCLRRLLERQWRQGGWLSTLLRPLAALTGLVVARKRNAYLTGARAAWRAPVPVVVVGNIYVGGTGKTPVVIEVVRQLQARGWTPGVVSRGYGVDVGAAPRVGQGQLAAADYGDEPALIARATGAAIAVHPHRPRAVQALLRAHPGVDVVVSDDGLQHLALARDVEIVVQDERGVGNGRLLPAGPLREPAQRLADVDAIVTNAGRPRAAAAPAAGAPRQLAMWLEPTHAQRVTDGATRTLADLAALPPARLAAAAGIGNPARFFQTLEQAGIRPAHTLALPDHYAYAQSPFTALDADLILVTAKDAIKCAALDDPRLWAVQVGTRLSDPDFGDWLSATLRARQPKLAAALEHHHHHH	not soluble
MNARSTGQHPARYPGAAAGEPTLDSWQEPPHNRWAFAHLGEMVPSAAVSRRPVNAPGHALVRLGAIAAQLPDLEQRLEQTYTDAFLVLRGTEVVAEYYRAGFAPDDRHLLMSVSKSLCGTVVGVLVDEGRIDPAQPVTEYVPELAGSVYDGPSVLQVLDMQISIDYNEDYVDPASEVQTHGRSAGWSTRRHGDPADTYEFLTTLRGDGSTGEFQYCSANTDVLAWIVERVTGLRYVEALSTYLWAKLDADRDATITVDTTGFGCAHGGVSCTARDLARVGRMMLDGGVAPRGRVVSEDWVRRVLAGGSHEAMTDKGFTNTFPDGSYTRQWWCTGNERANVSGIGIHGQNLWLDPLTDSVIVKLSSWPDPYTEHWHRLQNGILLDVSRALDAV	soluble
MNDNKILVVNAGSSSIKFQLFDYHKKVLAKALCERIFVDGFFKLEFNEQKVEEKVAFPDHHAAVTHFLNTLKKHKIIQELSDIILVGHRVVQGANYFKDSVIVDAEALAKIKEFIKLAPLHNKPEADVIEIFFKEVPSAKNVAVFDTTFHTTIPQENYLYAVPRSWEQKHLVRRYGFHGTSYKFINNYLEKHLNKQNLNLIVCHLGNGASVCAIKNGKSFNTSMGFTPLEGLIMGTRSGDLDPAIIGYVAEQENMSASDVVNALNKKSGMLALTGASDMRDVFAKPQENAVAIKMYVNRVADYIAKYLNQLEGNIDGLVFTGGIGENASDCVELFINAVKSLGFATDLKLFVKYGDSCVVSTPQSKYKIYRVRTNEELMIVEDSIRLTQK	soluble
MNDYIVVKCGGSMLEQLNDVFFDCIKKLQQQYKVVIVHGGGPEIDAKLKDCNINVEKRDGLRVTPKEVMDVVQMVLCGSTNKKFVMNLQKHNLLAVGCSGCDGKLLQVQPVSEEIGYVGEVSYVETALLKGLINMNYIPVIAPIGIHDNEIYNINADTAAAGIAAALSAKELILITDVDGILHEGKLVKKTDESEIATLIEKGVITGGMIPKVQAALASLKMGVQKISIVNGTKDFTEDTGECIGMTVTRGVSIV	not soluble
MNEFEDLLNSVSEVNPGDVVTAEVLTVDGEQANLVIDGTGVEAVLTLRELTNDRNADINDFVKAGDKVEVLVLRQVVGKDTDTVTFLVSKKRLEARKAWDKLVGREGDVVTVKGTRAVKGGLSVEFEGLRGFIPASMIDTRFVRNTEKFVGQQFEAKIKEIDPSENRFILSRRDVVEAAAAKAREEVFSRLAVGDIVTGTVARLTSFGAFIDLGGVDGLVHITELSHERNVSPKSVVTVGEEIQVKVLAIDEEAGRVSLSLKATTPGPWDGVEQKLAAGDVIEGKVKRLTDFGAFVEVLPGIDGLVHISQISHKRVENPKDVLSVGQDVTVKVLDVNTADERVSLSIKALEERPAQDESNGEKRQSRPRRQKRQDKRDYELPETQTGFSMADLFGDIELLEHHHHHH	soluble
MNEFETLLNSVEDVKVRDVVKGEILSVENGQATVAIVGTGVEGVLTLREITNDKDADINTFVKPGDVLDLLVIKQIVGKEAEGANVYLLSLKRLEARKAWTQLEGKEGEIVTVKVTKDVKGGLSVDYNGVRGFIPASMIDTYFVKDTKKFVGEEIEAKIIEVNASENRFILSRRAVVEAEAIEMRKEAFAQLQEGDIVEGTVSRVTNFGAFVDLGGIDGLVHVSELSHSRIKRPSDAVKPGDVVNVKILKLDPEAGRLSLSLKATQPGPWEQVEEKAPVGSTVEGTVKRLTDFGAFVELYPGVEGLVHVSQISWERVENPKDVLKVGQVVNVKVLDVKPAEERISLSIKALEEAPARPARNNDNDGEKRDRKPRAPRKAAKPSYDLPETQEGFSLADFLGEDFDINDLLEHHHHHH	soluble
MNEFKYNIGYALSGGFIKGFAHLGIMQALHEHGIRPEILSGVSAGALAAVFYADGKEPYHIVELFEHHSFKELTTFSINKQGLLKLDSFIDFLNSNLESKTIEELKIPTIITATDLDHGRIVSFKKGKIAERLAASCCMPILFAPIRINNTYYVDGGILMNLPVSPIRKECEKVIALNVDPLVADEYSKNVVSIALRAYHFIFQANTLPQKGIADLLIESYGLEEYSNRELERAEEIFEKGYNTATELLDRLLLENGTIWR	not soluble
MNEFTAVKELSEKLLEDYKTESSFFFASPTRTILAEGEFTTVKHHEIESFPELVQAVLRNAKQAGNPNPIVVGALPFDRRKEVQLIVPEYSRISERLQLDPTNHLEINRNLTFEMTPVPDHEVYMKGVKQGIEKIKDGDLKKIVLSRSLDVKSSGKIDKQKLLRELAEHNKHGYTFAVNLPKDENENSKTLIGASPELLVSRHGMQVISNPLAGSRPRSDDPVEDKRRAEELLSSPKDLHEHAVVVEAVAAALRPYCHTLYVPEKPSVIHSEAMWHLSTEVKGELKNPNTSSLELAIALHPTPAVCGTPMEEAREAIQKIEPFDREFFTGMLGWSDLNGDGEWIVTIRCAEVQENTLRLYAGAGVVAESKPEDELAETSAKFQTMLKALGLNDSSLNEK	not soluble
MNELVSAFHIERANGKVNGDVVAVEPAKTVNQDAADDEVEIKLNVDNYQMLRSDSQGSLNSHGRSNSRLGRLFRSKHEMKKRETRADENRGEIEIQIDFDDLVNQLKIALIRCRDLMTFDKKDQCNPYVSVKLVALDGNKEVFKKKTPTAKNTRHPHFDNHVEIDINPSDLLNHKVVINVKDDTNYGTFVAKPVLGCLEIRLDSLMNRQLSQRWIPLSVERK	not soluble
MNEQGVIFNSNGKQLVGIEHLPEPIHQGQTNKGVIIVVGGPQTRVGSHRLFVHLARALAKQRIVVFCFDYSGAGDSEGTVSTFTDIQDDIEAAFTPLSSAIVILLSWLDGAYAMLHRPFCFTSMSALNKRR	not soluble
